Laboratory results as given in patent US20040214256.

T1: peptide 3s, Ac-Ser-Gly-PyA-Lys-Ala-Phe-Ala-pNF-Gly-Lys NH2
T1 sequence: SGXKAFAXGK

T2: Compound 1s, Ac-Ile-Ile-PyA-pNF-Asn-Thr-Pro-Glu-His-Val-Val-Pro-Tyr-Gly-Leu-Gly-Ser-COOH
T2 sequence: IIXXNTPEHVVPYGLGS

T3: Compound 2s, Ac-Arg-Pro-Lys-Pro-Gln-Gln-PyA-pNF-Gly-Leu-Met-NH2
T3 sequence: RPKPQQXXGLM

T4: peptide 3s, Ac-Ser-Gly-PyA-Lys-Ala-Phe-Ala-pNF-Gly-Lys NH2
T4 chain: SGXKAFAXGK

T5: Compound 1s, Ac-Ile-Ile-PyA-pNF-Asn-Thr-Pro-Glu-His-Val-Val-Pro-Tyr-Gly-Leu-Gly-Ser-COOH
T5 chain: IIXXNTPEHVVPYGLGS

B1: endothelin-converting enzyme (ECE) (protein)
chain: MMSTYKRATLDEEDLVDSLSEGDAYPNGLQVNFHSPRSGQRCWAARTQVEKRLVVLVVLLAAGLVACLAALGIQYQTRSPSVCLSEACVSVTSSILSSMDPTVDPCHDFFSYACGGWIKANPVPDGHSRWGTFSNLWEHNQAIIKHLLENSTASVSEAERKAQVYYRACMNETRIEELRAKPLMELIERLGGWNITGPWAKDNFQDTLQVVTAHYRTSPFFSVYVSADSKNSNSNVIQVDQSGLGLPSRDYYLNKTENEKVLTGYLNYMVQLGKLLGGGDEEAIRPQMQQILDFETALANITIPQEKRRDEELIYHKVTAAELQTLAPAINWLPFLNTIFYPVEINESEPIVVYDKEYLEQISTLINTTDRCLLNNYMIWNLVRKTSSFLDQRFQDADEKFMEVMYGTKKTCLPRWKFCVSDTENNLGFALGPMFVKATFAEDSKSIATEIILEIKKAFEESLSTLKWMDEETRKSAKEKADAIYNMIGYPNFIMDPKELDKVFNDYTAVPDLYFENAMRFFNFSWRVTADQLRKAPNRDQWSMTPPMVNAYYSPTKNEIVFPAGILQAPFYTRSSPKALNFGGIGVVVGHELTHAFDDQGREYDKDGNLRPWWKNSSVEAFKRQTECMVEQYSNYSVNGEPVNGRHTLGENIADNGGLKAAYRAYQNWVKKNGAEHSLPTLGLTNNQLFFLGFAQVWCSVRTPESSHEGLITDPHSPSRFRVIGSLSNSKEFSEHFRCPPGSPMNPPHKCEVW

Legend:
[1] = tested on: T1, peptide 3s, Ac-Ser-Gly-PyA-Lys-Ala-Phe-Ala-pNF-Gly-Lys NH2
[2] = tested on: T2, Compound 1s, Ac-Ile-Ile-PyA-pNF-Asn-Thr-Pro-Glu-His-Val-Val-Pro-Tyr-Gly-Leu-Gly-Ser-COOH
[3] = tested on: T3, Compound 2s, Ac-Arg-Pro-Lys-Pro-Gln-Gln-PyA-pNF-Gly-Leu-Met-NH2
[4] = molecular target: T4, peptide 3s, …
[5] = molecular target: T5, Compound 1s, …

Row | Molecule | cleavage by HPLC after 2 h at 37° C. [1] | cleavage by HPLC after 2 h at 37° C. [2] | cleavage by HPLC after 2 h at 37° C. [3] | cleavage products by HPLC [4] | Km (fluorimetric cleavage assay, ENZFITTER) [5] | cleavage products by HPLC [5]
1 | angiotensin-converting enzyme (ACE) | no cleavage is observed by HPLC after incubation for 2 h at 37 °C | no cleavage is observed by HPLC after incubation for 2 h at 37 °C | no cleavage is observed by HPLC after incubation for 2 h at 37 °C |  |  | 
2 | neprilysin (NEP) | no cleavage is observed by HPLC after incubation for 2 h at 37 °C | no cleavage is observed by HPLC after incubation for 2 h at 37 °C | no cleavage is observed by HPLC after incubation for 2 h at 37 °C |  |  | 
3 | B1 |  |  |  | produce only two metabolites, as shown by analysis of the reaction by HPLC, corresponding to the single cleavage at the PyA-pNF peptide bond | 1s, Km=22.1±0.9 µM | In all cases, a single cleavage site at the L.PyA-Lp.NF dipeptide was observed, generating only two metabolites
